Results published in article PMC6973308.

Legend:
[1] = biological target: anti-HER2 (trastuzumab) heavy chain, produced alone; assay: SEC
[2] = biological target: anti-HER2 (trastuzumab) light chain, produced alone; assay: SEC
[3] = biological target: anti-HER2 (trastuzumab) light chain, produced alone; assay: SDS-PAGE
[4] = biological target: anti-HER2 (trastuzumab) heavy chain, produced alone; assay: HPLC-MS
[5] = biological target: anti-HER2 (trastuzumab) heavy chain, produced alone; assay: SDS-PAGE

% Area of monomer mAb (SEC-HPLC) [1] [% Area] | stoichiometry N [2] | percent of LC dimers covalently bonded (42 KDa band) [3] [%] | stoichiometry N [4] | stoichiometry N [5] | Substance
90.1 | 2 | 55 | – | – | anti-HER2 (trastuzumab) light chain, produced alone (domain or fragment)
– | – | – | 2 | 2 | anti-HER2 (trastuzumab) heavy chain, produced alone (domain or fragment)
